The record followed here is US20180057888A1, “KUB5/HERA AS A DETERMINANT OF SENSITIVITY TO DNA DAMAGE” (priority 2015, published 2018).

The experiment deals with RNA Polymerase II (RNAPII), phospho-Ser2 C-terminal domain (pS2-CTD) (UniProt P24928). Put plainly: cell-based or functional assay.

Sequence of myc-tagged wild-type Kub5-Hera (K-H) (Q9NQG5 whole entry): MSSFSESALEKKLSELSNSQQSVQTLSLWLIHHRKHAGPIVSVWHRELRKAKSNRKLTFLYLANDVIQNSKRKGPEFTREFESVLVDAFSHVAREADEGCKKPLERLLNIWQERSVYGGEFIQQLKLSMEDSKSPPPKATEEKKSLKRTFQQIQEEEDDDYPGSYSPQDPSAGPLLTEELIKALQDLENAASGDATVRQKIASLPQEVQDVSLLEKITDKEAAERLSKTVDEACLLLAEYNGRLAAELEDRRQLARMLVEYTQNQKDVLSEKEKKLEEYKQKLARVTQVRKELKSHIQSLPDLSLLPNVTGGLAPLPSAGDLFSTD

As for “myc-tagged wild-type Kub5-Hera (K-H) (from UniProt Q9NQG5 1-326)”, the CDK1 promoter activity (luciferase reporter, 231 cells) came to 3 fold.
